Results on 3 molecules are retold here after patent publication US20220363763A1 (ABL BIO, published 2022).

Assay [1] has as its target T1, human LAG3-His protein (Sinobio, 16498-H08H) (human, UniProt P18627 23-450).
T1 construct: also called human LAG3 protein; not shown: His tag
T1 sequence (looked up): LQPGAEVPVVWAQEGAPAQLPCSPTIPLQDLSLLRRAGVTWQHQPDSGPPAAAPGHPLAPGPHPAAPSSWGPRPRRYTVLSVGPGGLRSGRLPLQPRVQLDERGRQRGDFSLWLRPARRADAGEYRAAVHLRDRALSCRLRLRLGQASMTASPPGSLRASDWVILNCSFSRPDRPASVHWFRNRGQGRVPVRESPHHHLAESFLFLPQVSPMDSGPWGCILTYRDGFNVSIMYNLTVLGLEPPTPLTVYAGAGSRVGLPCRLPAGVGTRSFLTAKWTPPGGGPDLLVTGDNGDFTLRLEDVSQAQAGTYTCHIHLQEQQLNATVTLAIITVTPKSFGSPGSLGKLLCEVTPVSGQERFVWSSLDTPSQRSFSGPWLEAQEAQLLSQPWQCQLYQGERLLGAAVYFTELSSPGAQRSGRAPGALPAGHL
As to the kind of experiment: ELISA on coated LAG3-His. An excerpt: To evaluate the binding activity to PD-L1 and LAG3 of the bispecific antibodies (BsAb; H12x147 and 147xH12) prepared in Example 3, the BsAb were subjected to ELISA test.

For a further assay, the target named is T2, human PD-L1-Fc protein (human, UniProt Q9NZQ7 19-239).
T2 construct: Coated on ELISA plates; also called huPD-L1; not shown: Fc part
As to the kind of experiment: ELISA on coated PD-L1-Fc.

Assay [2] addresses T3, recombinant his-tag human LAG3-ECD protein (human, UniProt P18627 23-450).
T3 construct: extracellular domain; not shown: his tag
T3 sequence (looked up): T1 sequence (looked up)
The assay can be described thus: SPR Biacore T200, capture method as Example 2.7.

Assay [3] has as its target T4, human LAG3 on cells (human, UniProt P18627 23-525).
T4 construct: whole, on cells; also called Jurkat-LAG3
T4 sequence (looked up): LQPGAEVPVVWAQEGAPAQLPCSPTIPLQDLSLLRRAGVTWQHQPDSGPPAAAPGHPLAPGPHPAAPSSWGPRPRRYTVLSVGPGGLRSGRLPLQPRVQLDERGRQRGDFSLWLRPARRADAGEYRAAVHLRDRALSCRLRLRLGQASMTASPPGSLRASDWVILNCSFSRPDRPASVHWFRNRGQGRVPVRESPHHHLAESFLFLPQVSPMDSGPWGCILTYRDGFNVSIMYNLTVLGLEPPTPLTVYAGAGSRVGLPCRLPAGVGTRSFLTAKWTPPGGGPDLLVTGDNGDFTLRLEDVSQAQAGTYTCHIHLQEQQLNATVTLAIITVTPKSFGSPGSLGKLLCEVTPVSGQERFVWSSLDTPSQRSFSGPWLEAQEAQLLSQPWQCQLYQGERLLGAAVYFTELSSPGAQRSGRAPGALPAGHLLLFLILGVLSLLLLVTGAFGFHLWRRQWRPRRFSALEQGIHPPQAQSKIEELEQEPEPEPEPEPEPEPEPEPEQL
As to the kind of experiment: flow cytometry (MFI) on Jurkat-LAG3 cells, upper panel; EC50 table has no unit, x axis Concentration (nM); Table 31 of the text prints the rounded 1.2. As for the experimental part:
(§1) To further confirm affinity matured anti-LAG-3 antibodies could bind to cell-derived human LAG3, both inducible hLAG3 expressed Jurkat cells and activated PBMCs were used to test the binding capability of B3807b and B3810. In brief, Jurkat cells were resuspended in FACS buffer. Anti-LAG3 antibodies and isotype control were 4-fold serially diluted in FACS buffer with a dose ranging from 20 nM to 30 pM. The serially diluted antibodies were added to the cell suspension and incubated for 30 minutes on ice. Then after removal of unbound antibodies, cells were stained with anti-human IgG conjugated with Alexa Fluor 633 (Thermo, A21091). Fluorescence measurement was acquired on FACSCelesta flow cytometer and analyzed in Flowjo to determine the mean fluorescence intensities (MFI). To test anti-LAG3 antibodies' ability of binding to native human LAG3, PBMCs from health donor were stimulated with anti-CD3 (BD, 555336) and anti-CD28 (BD, 555725) both at a concentration of 1 ug/ml. Following 3 days' stimulation, cells were harvested and incubated with anti-LAG3 antibodies for 30 mins on ice. The cells were stained with anti-human CD4 and anti-human IgG. Analysis of antibodies binding to CD4+ cells were carried out on FACSCelesta flow cytometry. […] FIG. 31 is a graph showing the binding curve of anti-LAG3 antibodies.

In assay [4] the target is T5, recombinant human LAG-3-ECD-human IgG1 fusion protein (human, UniProt P18627 23-450, biotin-labeled in the MHC class II blocking assays).
T5 construct: extracellular domain; also called LAG-3-huFc; LAG-3-ECD-huFc; not shown: human IgG1 Fc
T5 sequence (looked up): T1 sequence (looked up)
As to the kind of experiment: ELISA as Example 2.2, coated human LAG3 ECD-Fc. As for the experimental part: To evaluate the capability of the anti-LAG-3 antibodies to bind to human, rat, and mouse LAG3 the antibodies identified in Example 2.1 were evaluated for their binding property through ELISA. The human, rat and mouse LAG3 ECD-Fc protein were coated to ELISA plate at 1 μg/ml with 100 μl/well. Antibodies from Example 1 were serially diluted with ELISA diluent buffer. […] The resulting plates were washed and then labeled with anti-human IgG(Fab)-HRP antibody. The S31 can only bind to human LAG3. The S27 and T99 can bind to human LAG3 and rat/mouse LAG3 with lower potency. The S119 antibody can bind to human, rat and mouse LAG3 at high potency (FIGS. 22A-22D).

Assay [5] deals with T6, human LAG3 (construct not stated) (human, UniProt P18627 23-450, limits assumed).
T6 construct: also called human LAG3 protein; antigen
T6 sequence (looked up): T1 sequence (looked up)
The assay can be described thus: BLI Octet Red 96, affinity ranking.

The target of assay [6] is T4, human LAG3 on cells. The assay can be described thus: flow cytometry (MFI) on activated CD4 T cells, lower panel; EC50 table has no unit, x axis Concentration (nM); Table 31 of the text prints the rounded 0.77. As for the experimental part: as §1
In assay [7] the target is T6, human LAG3 (construct not stated). The assay can be described thus: BLI Octet Red 96, full kinetics, antigen 50-3.125 nM. As for the experimental part:
The binding affinity was calculated by software in Octet® RED96 System.

Assay [8] concerns the target T4, human LAG3 on cells. The assay can be described thus: flow cytometry on hLAG3-expressing Jurkat cells. As for the experimental part:
as §1

Assay [9] concerns the target T4, human LAG3 on cells. The assay can be described thus: flow cytometry on activated CD4 T cells. As for the experimental part:
as §1

The target in assay [10] is T4, human LAG3 on cells. As to the kind of experiment: flow cytometry (MFI) on activated human PBMC (CD4+ cells), lower panel. As for the experimental part:
(§2) To further confirm that B3807 could bind to cell-derived human LAG3, both inducible human LAG3 expressed Jurkat cells and activated PBMCs were used to test the binding capability of B3807. In brief, Jurkat cells were resuspended in FACS buffer. B3807, 25F7 and isotype control were 3-fold serially diluted in FACS buffer with a dose ranging from 20 nM to 9 pM. The serially diluted antibodies were added to the cell suspension and incubated for 30 minutes on ice. Then after removal of unbound antibodies, cells were stained with anti-human IgG conjugated with Alexa Fluor 633 (Thermo, A21091). Fluorescence measurement was acquired on FACSCelesta flow cytometer and analyzed in Flowjo to determine the mean fluorescence intensities (MFI). To test the antibodies' ability of binding to native human LAG3, PBMCs from health donor were stimulated with anti-CD3 (BD, 555336) and anti-CD28 (BD, 555725) both at a concentration of 1 μg/ml. Following 3 days' stimulation, cells were harvested and incubated with anti-LAG3 antibodies for 30 mins on ice. The cells were stained with anti-human CD4 and anti-human IgG. Analysis of antibodies binding to CD4+ cells were carried out on FACSCelesta flow cytometry.

Assay [11] deals with T4, human LAG3 on cells. The assay can be described thus: flow cytometry (MFI) on human LAG3-expressing Jurkat cells, upper panel. As for the experimental part: as §2
The target of another assay is T7, Bio-LAG3 (human, UniProt P18627 23-450, limits assumed, biotinylated (sites not given)).
T7 construct: also called human LAG3 protein
T7 sequence (looked up): T1 sequence (looked up)
The assay can be described thus: ELISA, Bio-LAG3 held on streptavidin-coated plate. As for the experimental part:
The streptavidin was coated to an ELISA plate at 2 μg/ml with 100 μl/well. 100 μl of Bio-LAG3 at 1.0 μg/ml was subsequently incubated with streptavidin at RT for 1 hr. B3807, along with a positive control 25F7 and a negative control IgG, were serially diluted with ELISA diluent buffer. To assess binding, the antibodies at various concentrations were added to LAG3 protein-coated plate for 1.5 hr RT. The resulting plates were washed and then labeled with anti-human IgG(Fab)-HRP antibody.

In assay [12] the target is T3, recombinant his-tag human LAG3-ECD …. As to the kind of experiment: Biacore, antibody captured, His-tag human LAG3-ECD injected (procedure of Example 2.16(B)); column kd(1/s). As for the experimental part: (§3) The binding of B3807 to recombinant His-tag human LAG3-ECD protein was examined by Biacore T200 using a capture method. B3807 was captured using protein A which was immobilized on CM5 sensor chip. Serial concentrations of his-tag human LAG3-ECD protein (0-12 nM) were injected over capture antibodies at the flow rate of 30 μl/min. The dissociation phase was 900 s or 550 s.
(§4) B3807 was used in the following examples for further testing and preparing bispecific antibodies.

The target of assay [13] is T6, human LAG3 (construct not stated). The assay can be described thus: TR-FRET LAG3 / MHC II binding assay (Cisbio), competitor MHC II. As for the experimental part:
To measure the ability of B3807 to block the interaction between human LAG3 and MHCII, the LAG3 and MHC II binding assay (Cisbio, 64ICP03PEG) was performed utilizing homogeneous TR-FRET technology, following the protocol provided by the kit manufacturer. B3807 was 3-fold diluted ranging from 100 nM to 5 pM (10 points). Fluorescence data was acquired on a PerkinElmer Envision plate reader and a four-parameter dose-response curve was fitted to obtain IC50 of each antibody.

For assay [14], the target named is T3, recombinant his-tag human LAG3-ECD …. The assay can be described thus: Biacore, antibody captured, His-tag human LAG3-ECD injected (procedure of Example 2.16(B)); column ka (1/Ms). As for the experimental part:
as §3, §4

Assay [15] has the same target. As to the kind of experiment: Biacore, antibody captured, His-tag human LAG3-ECD injected (procedure of Example 2.16(B)). As for the experimental part: as §3, §4
The next assay deals with T8, biotin-labeled LAG3-ECD (Homo sapiens (Human), UniProt P18627 23-450, biotin label, site not stated).
T8 construct: also called soluble LAG-3; LAG3 protein
T8 sequence: T1 sequence (looked up)
As to the kind of experiment: ELISA on coated recombinant FGL-1; blocking of the binding of biotin-labeled LAG3-ECD to FGL-1. As for the experimental part: Recombinant FGL-1 were coated on a 96 well plated at a concentration of 1 μg/ml and incubated overnight at 4° C. Serially diluted anti-LAG3 antibody B3807 (starting from 10 μg/ml and 1:3 dilution) and biotin-labeled LAG3-ECD (2 μg/ml) were incubated with FGL-1 coated wells at room temperature for 2 hours. After extensive washing with the wash buffer, streptavidin-HRP was added.

Assay [16] has as its target T3, recombinant his-tag human LAG3-ECD …. As to the kind of experiment: Biacore T200, B3807 captured on protein A, His-tag human LAG3-ECD injected; column 'KD', unit inferred. As for the experimental part: as §3

Positions count from the first letter of the chain named.

T2 sequence (Q9NZQ7 19-239 limits assumed): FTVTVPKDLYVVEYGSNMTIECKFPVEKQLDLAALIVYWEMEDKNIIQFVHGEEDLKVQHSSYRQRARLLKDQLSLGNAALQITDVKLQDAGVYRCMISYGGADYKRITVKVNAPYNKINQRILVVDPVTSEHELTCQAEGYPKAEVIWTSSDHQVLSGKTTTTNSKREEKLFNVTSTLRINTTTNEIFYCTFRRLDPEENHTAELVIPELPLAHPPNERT

B1: H12x147 (bispecific antibody, human IgG1, kappa, N297A)
heavy: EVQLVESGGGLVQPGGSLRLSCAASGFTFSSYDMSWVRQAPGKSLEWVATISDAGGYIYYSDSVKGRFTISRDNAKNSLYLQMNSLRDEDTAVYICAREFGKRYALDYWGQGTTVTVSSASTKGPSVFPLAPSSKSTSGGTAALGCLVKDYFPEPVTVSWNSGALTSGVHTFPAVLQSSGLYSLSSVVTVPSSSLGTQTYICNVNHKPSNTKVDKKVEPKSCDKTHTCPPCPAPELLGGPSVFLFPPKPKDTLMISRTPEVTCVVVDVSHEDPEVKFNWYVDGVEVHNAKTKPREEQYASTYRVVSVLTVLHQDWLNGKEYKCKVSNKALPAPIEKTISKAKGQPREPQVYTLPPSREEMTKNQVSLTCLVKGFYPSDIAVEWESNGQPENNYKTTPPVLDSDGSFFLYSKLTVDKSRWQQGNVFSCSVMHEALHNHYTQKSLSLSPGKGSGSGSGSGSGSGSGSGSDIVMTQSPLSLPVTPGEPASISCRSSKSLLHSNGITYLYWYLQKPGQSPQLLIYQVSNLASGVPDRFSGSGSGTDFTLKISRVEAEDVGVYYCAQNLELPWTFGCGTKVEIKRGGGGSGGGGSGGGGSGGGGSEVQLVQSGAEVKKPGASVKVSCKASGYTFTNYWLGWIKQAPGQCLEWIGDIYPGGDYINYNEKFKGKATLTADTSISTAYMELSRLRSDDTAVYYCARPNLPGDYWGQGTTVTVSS
light: DIQMTQSPSSLSASVGDRVTITCKASQDVTPAVAWYQQKPGKAPKLLIYSTSSRYTGVPSRFSGSGSGTDFTFTISSLQPEDIATYYCQQHYTTPLTFGQGTKLEIKRTVAAPSVFIFPPSDEQLKSGTASVVCLLNNFYPREAKVQWKVDNALQSGNSQESVTEQDSKDSTYSLSSTLTLSKADYEKHKVYACEVTHQGLSSPVTKSFNRGEC
notes: also called L1A3
For the molecule B1, the binding result (in assay [1]; with human PD-L1-Fc protein) was “binds” throughout.

B2: 147H-13 (antibody, V domains shown)
VH: EVQLVQSGAEVKKPGASVKVSCKASGYTFTNYWLGWIKQAPGQGLEWIGDIYPGGDYINYNEKFKGKATLTADTSISTAYMELSRLRSDDTAVYYCARPNLPGDYWGQGTTVTVSS
VL: DIVMTQSPLSLPVTPGEPASISCRSSKSLLHSNGITYLYWYLQKPGQSPQLLIYQVSNLASGVPDRFSGSGSGTDFTLKISRVEAEDVGVYYCAQNLELPWTFGGGTKVEIK
notes: Common light chain; human gamma 1 / kappa constant domains; also called 147H4-13
As for B2, the figures for the Kd in assay [2], in assay [5] and in assay [7] were 14 nM, 21.6 nM and 18.2 nM, respectively. In addition, the koff in assay [2] is 0.03 s⁻¹; in assay [5], 0.00234 s⁻¹; in assay [7], 0.0019 s⁻¹. The kon in assay [2] was found to be 2.2e+06 M⁻¹ s⁻¹; in assay [5], 108000 M⁻¹ s⁻¹; in [7], 104000 M⁻¹ s⁻¹. The EC50 in the assay with human LAG3 on cells [3] is 1.23 nM; in [4] it was 6.5 nM; in the assay with human LAG3 on cells [6], 0.767 nM; in the assay with human LAG3 on cells [8], 1.2 nM; in the assay with human LAG3 on cells [9], 0.77 nM.

B3: 147H 3807 (antibody, V domains shown)
VH: B2 VH with N59V, G103K, Y105H
VL: B2 VL with N33Q, N96Y
notes: also called B3807
Turning to B3, the results for the EC50 with human LAG3 on cells [10], with human LAG3 on cells [11] and with Bio-LAG3 were 0.32 nM, 0.06 nM and 0.06 nM, respectively. In assay [12], the koff is 0.00517 s⁻¹. Besides, the IC50 in assay [13] turned out to be 0.41 nM. Moreover, in [14], the kon was found to be 5.66e+06 M⁻¹ s⁻¹. Further, the values for the dissociation constant (Kd) in [15] and in assay [16] were 0.915 nM and 0.464 nM, respectively. The “IC50 (read off the curve)” value with biotin-labeled LAG3-ECD was approximately 0.2 µg/mL.
